# B1: Catenin beta-1 (Mus musculus), Q02248 (parent)
# chain: MATQADLMELDMAMEPDRKAAVSHWQQQSYLDSGIHSGATTTAPSLSGKGNPEEEDVDTSQVLYEWEQGFSQSFTQEQVADIDGQYAMTRAQRVRAAMFPETLDEGMQIPSTQFDAAHPTNVQRLAEPSQMLKHAVVNLINYQDDAELATRAIPELTKLLNDEDQVVVNKAAVMVHQLSKKEASRHAIMRSPQMVSAIVRTMQNTNDVETARCTAGTLHNLSHHREGLLAIFKSGGIPALVKMLGSPVDSVLFYAITTLHNLLLHQEGAKMAVRLAGGLQKMVALLNKTNVKFLAITTDCLQILAYGNQESKLIILASGGPQALVNIMRTYTYEKLLWTTSRVLKVLSVCSSNKPAIVEAGGMQALGLHLTDPSQRLVQNCLWTLRNLSDAATKQEGMEGLLGTLVQLLGSDDINVVTCAAGILSNLTCNNYKNKMMVCQVGGIEALVRTVLRAGDREDITEPAICALRHLTSRHQEAEMAQNAVRLHYGLPVVVKLLHPPSHWPLIKATVGLIRNLALCPANHAPLREQGAIPRLVQLLVRAHQDTQRRTSMGGTQQQFVEGVRMEEIVEGCTGALHILARDVHNRIVIRGLNTIPLFVQLLYSPIENIQRVAAGVLCELAQDKEAAEAIEAEGATAPLTELLHSRNEGVATYAAAVLFRMSEDKPQDYKKRLSVELTSSLFRTEPMAWNETADLGLDIGAQGEALGYRQDDPSYRSFHSGGYGQDALGMDPMMEHEMGGHHPGADYPVDGLPDLGHAQDLMDGLPPGDSNQLAWFDTDL
# Variants of: B1
# Details: with MAPK9, P45984-1
row,Variant,effect of a mutation on the interaction
1,S246A,decreasing interaction
2,S191A,disrupting interaction
3,S605A,decreasing interaction
4,S191A;S246A;S605A,disrupting interaction
